Results taken from the supplement of paper PMC12764529.
± gives the half width of the 95% confidence interval.

Legend:
[1] = folding stability dG unfold (combined trypsin and chymotrypsin); higher = more stable
How it was run: (§1)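 Digests were run with trypsin and chymotrypsin at 11 concentrations in threefold dilutions, plus a no-protease condition, on designed mini-proteins in a PA-tagged cDNA display construct. The mini-proteins were under 80 residues, had no cysteine, and were kept only when AlphaFold2 dimer inter-PAE was above 15. After sequencing, Bayesian fitting of the counts gave K50, from which unfolding free energy was derived against a sequence-predicted unfolded-state K50 and a shared folded-state K50, per protease or combined.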

[2] = folding stability dG unfold from trypsin proteolysis; higher = more stable
How it was run: as §1

[3] = folding stability dG unfold from chymotrypsin proteolysis; higher = more stable
How it was run: as §1

Row | Sequence | folding stability dG unfold [1] [kcal/mol] | folding stability dG unfold [2] [kcal/mol] | folding stability dG unfold [3] [kcal/mol]
1 | SAGGSAGGSAMEINEIVKETAKKGKNLTITVKLPDGSTVTITVTPDEDVPEDLEVLEVTVKSAGGSAGGSAG [r3_421_JUSTAS] | 1.4 ± 0.056 | 0.344 ± 0.05 | 1.78 ± 0.038
2 | SAGGSAGGSAMEITITVPKENEEEVLEAAKKALEELGIEEVKVEKLEDGTYKVTARVKPGLSAGGSAGGSAG [r3_335_TrROS_Hall] | 0.361 ± 0.2 | 0.325 ± 0.12 | 0.219 ± 0.14
3 | SAGGSAGGSAMIEISEEELEKLLAETPEEEAKEVKIERIPDIGLINVTIPSGKVIKVKIKESAGGSAGGSAG [r3_291_JUSTAS] | 0.911 ± 0.086 | -0.241 ± 0.11 | 1.43 ± 0.077
4 | SAGGSAGGSAMIETTVSFDPSTGTVTTTTTYTDPNGGYTKSSTTVTPVPTPAPPPPAAPNRVSAGGSAGGSA [r18_361_JUSTAS] | 0.551 ± 0.094 | 0.409 ± 0.029 | 0.582 ± 0.067
5 | SAGGSAGGSAMITTPKGERFEVPLRLTPDGRLEVLVVTDRPDDPEVRELAERLARELAERLSAGGSAGGSAG [r3_163_TrMRF] | 0.484 ± 0.14 | 0.506 ± 0.11 | 0.394 ± 0.17
6 | SAGGSAGGSAMIVVPVDLVRERLDELVFRGEDGVEYRAEVRVFEVGDRPVAVIDLRPLDEDGSAGGSAGGSA [r18_447_TrMRF] | 0.823 ± 0.048 | 0.467 ± 0.025 | 0.994 ± 0.047
7 | SAGGSAGGSAMKFPKGAKIEIVVTEDKVYVRIKTPGGKEIEVEMTLEELKKLGFEVEIVEEESAGGSAGGSA [r18_125_TrROS_Hall] | 2.19 ± 0.15 | 1.75 ± 0.086 | 2.27 ± 0.061
8 | SAGGSAGGSAMKIELTVPPGEEAELEARAKALAEAEGVEVVSVSKSPEGTYTMTVLNTVPPESAGGSAGGSA [r18_351_JUSTAS] | 0.317 ± 0.098 | 0.532 ± 0.058 | -0.164 ± 0.19
9 | SAGGSAGGSAMKIVEWNEETGELTIELPDGTKITLKVENGEITEVKVEPLPPVPPDLPELKSAGGSAGGSAG [r3_406_TrROS_Hall] | 2.24 ± 0.24 | 0.537 ± 0.15 | 2.45 ± 0.16
10 | SAGGSAGGSAMKIVKIEVVENEDGEKYVKIEIELENGEKIEITLPLEELENMSLEELLKLLKSAGGSAGGSA [r18_129_TrROS_Hall] | 3.68 ± 0.12 | 2.94 ± 0.18 | 3.94 ± 0.17
11 | SAGGSAGGSAMKIVKITTTQLPNGTTKVTVTFSDGSTKTVTIPPNQPGKSAEEVAKKVLLESAGGSAGGSAG [r3_368_JUSTAS] | 2.96 ± 0.087 | 1.8 ± 0.055 | 3.37 ± 0.054
12 | SAGGSAGGSAMKPGEVIEIEITDKETGKKIKAEIVLKDGKLYIKIYNENGELIAEIEIEIKDSAGGSAGGSA [r18_264_TrROS_Hall] | 3.42 ± 0.14 | 2.83 ± 0.2 | 3.4 ± 0.12
13 | SAGGSAGGSAMKTYTLEQIEELLKSLPEEEIEEVKIEEKEGKKVIYVKTKDGREIEIVVEPSAGGSAGGSAG [r3_291_TrROS_Hall] | 2.98 ± 0.13 | 2.86 ± 0.2 | 3.19 ± 0.052
14 | SAGGSAGGSAMKVALVERPDGSPFLLVFDPDRPGVALLRPLDTDEVEVLPSELLKNLKITASAGGSAGGSAG [r3_451_TrMRF] | 0.344 ± 0.1 | -0.509 ± 0.17 | 0.68 ± 0.13
15 | SAGGSAGGSAMKVGEEVEVTVRIKVDGKEYEVKAKATLDEDGNVTLEVEIKAKEGKVEIEIESAGGSAGGSA [r18_428_TrROS_Hall] | 2.63 ± 0.13 | 3.42 ± 0.26 | 2.15 ± 0.14
16 | SAGGSAGGSAMKVITLPENADINKVIEAVEAGSPILVKIVDPKSSKTTDLPLPSKEAVEKLSAGGSAGGSAG [r3_362_JUSTAS] | -0.33 ± 0.15 | -0.468 ± 0.17 | -0.394 ± 0.18
17 | SAGGSAGGSAMKVLVTVTLTSPDGTKTTLTEEADPAELKGVLEAALPWTVETVTVYPAEELLSAGGSAGGSA [r18_107_JUSTAS] | 1.04 ± 0.089 | 1.35 ± 0.051 | 0.509 ± 0.12
18 | SAGGSAGGSAMKYKVTVTTTPPDGTTTTTPTVVDFKSKEEIEEYVKKKAPKDTKVEVEIEPESAGGSAGGSA [r18_60_JUSTAS] | 0.0447 ± 0.19 | -0.228 ± 0.085 | 0.0584 ± 0.22

Row | Sequence | folding stability dG unfold [1] [kcal/mol] | folding stability dG unfold [2] [kcal/mol] | folding stability dG unfold [3] [kcal/mol]
19 | SAGGSAGGSAMKYTVTVTLPNGTTLTLDVGTETEEEAVSETKKLIAEKYPDVKGAKIDLTKESAGGSAGGSA [r18_434_JUSTAS] | 2.33 ± 0.13 | 1.88 ± 0.11 | 2.52 ± 0.038
20 | SAGGSAGGSAMLENARPFPIDLPTKYRLRIVLPDGRVLELEYDPKSGVPRLRVVPVEEALKRSAGGSAGGSA [r18_247_TrMRF] | 1.46 ± 0.036 | 1.19 ± 0.012 | 1.59 ± 0.033
21 | SAGGSAGGSAMLTIPVTTPEEARELAEELLRRGYLRVEPTEDGDVTVIHPDGVPTRILVPTESAGGSAGGSA [r18_126_TrMRF] | 0.558 ± 0.059 | 0.471 ± 0.043 | 0.551 ± 0.11
22 | SAGGSAGGSAMLVIRVYFEDTGRVLTLTADSEEEALEAIKRLLPPGAKIKKVEIFEVSEEDLSAGGSAGGSA [r18_350_TrROS_Hall] | 4.33 ± 0.058 | 4.08 ± 0.071 | 4.439 ± 0.041
23 | SAGGSAGGSAMNRYRILLLDPENGKPLVFELPGNMTPEEAKEAAEELAERFGVTVVAIEGFPSAGGSAGGSA [r18_322_TrMRF] | 4.11 ± 0.057 | 3.18 ± 0.044 | 4.362 ± 0.021
24 | SAGGSAGGSAMPEEVKLRVVKVKVKEVEVETDENGEKRTRVKAEVVEEREITLPKEELEKLSAGGSAGGSAG [r3_121_TrROS_Hall] | 1.76 ± 0.14 | 2.35 ± 0.18 | 1.04 ± 0.074
25 | SAGGSAGGSAMPFRVKVPPGSRVLVTRYLPGGLEREEVELSEDEDELVVEAESGVVEVRVLDSAGGSAGGSA [r18_124_TrMRF] | 0.977 ± 0.21 | 0.938 ± 0.07 | 0.969 ± 0.28
26 | SAGGSAGGSAMPIKYLFPKDKSLEDILDEIIKKTGKPKSEIKNIKLEEIDDEEGFYVAYVESAGGSAGGSAG [r3_26_TrMRF] | 1.36 ± 0.22 | 1.36 ± 0.092 | 1.13 ± 0.13
27 | SAGGSAGGSAMRINIKLPGVETESVEVDPEKGMITARLKFPEGRKVEISFFPDGNVKIHPVSAGGSAGGSAG [r3_348_TrROS] | 0.898 ± 0.11 | 1.14 ± 0.05 | 0.751 ± 0.066
28 | SAGGSAGGSAMRLRLKVKPGEKVRIRVERDGKVYEFEVTVEEGADEIEIDLPPGVKRIEIEPSAGGSAGGSA [r18_124_TrROS_Hall] | 3.62 ± 0.17 | 2.76 ± 0.21 | 3.8 ± 0.095
29 | SAGGSAGGSAMSEEEKKKKKPKLEIKVKVEFTVDENGTVRAKVTFEDGTTLEVEIKLPPELLSAGGSAGGSA [r18_192_TrROS_Hall] | 1.7 ± 0.11 | 1.92 ± 0.094 | 1.49 ± 0.059
30 | SAGGSAGGSAMTLEEKALESEELKKKIEEAPPSTKLITFELPGGEKITFTKNPDGSVVLSPSAGGSAGGSAG [r3_124_JUSTAS] | 1.2 ± 0.11 | 0.941 ± 0.051 | 1.41 ± 0.1
31 | SAGGSAGGSAMTPEEIKKLFPNAKMKPFKGNGKTVIVIELPSGEKIEIVFDDGKPRIIVYKGSAGGSAGGSA [r18_13_TrMRF] | 1.32 ± 0.13 | 1.36 ± 0.042 | 1.3 ± 0.091
32 | SAGGSAGGSAMTTVTSTTEIPPSALTVKTSVSTAPDGSLVETTTVVLPDGSVVTTTLSTVASAGGSAGGSAG [r3_7_JUSTAS] | 1.11 ± 0.047 | 0.974 ± 0.035 | 1.19 ± 0.018
33 | SAGGSAGGSAMVVEERRLPDDLLVRTEVEPVEDNELPGPALRVTVTTVDLKTGEETPEVIPESAGGSAGGSA [r18_66_JUSTAS] | -0.0827 ± 0.091 | -0.713 ± 0.16 | 0.168 ± 0.03
34 | SAGGSAGGSAMVVRGEDLTPEALLELLEENPEEVTLETKDHIATVKFNPETGELEITSVDDISAGGSAGGSA [r18_75_TrMRF] | 1.6 ± 0.13 | 1.38 ± 0.12 | 1.73 ± 0.099
35 | SAGGSAGGSANGFVFKIKEVFEVDGKLFLKVTGTDKEYIIPDNAIIEPLEDDSVKVIILPPESAGGSAGGSA [r18_468_TrMRF] | 1.31 ± 0.061 | 1.19 ± 0.021 | 1.35 ± 0.086
36 | SAGGSAGGSANIDIKVEENPGNGYRKVEVTMTVDDLRELFGNEPIPPGEERQIKMTIYLPIPSAGGSAGGSA [r18_327_TrROS] | 1.21 ± 0.17 | 0.772 ± 0.13 | 1.37 ± 0.095
